The source of these data is patent publication US20190185537A1 (AstraZeneca / MedImmune, published 2019).

Numbered stars: 1 amine (or outer) side, 2 acyl side, 3 side chain; on linkers, the order of the positions; unused ones are H or OH. Side chains are listed from the residue outwards. Ends that are not written are not given here. * marks the point of attachment. γGlu = O=C(O)[C@H](CCC(=O)[*:2])N[*:1]; Palmitoyl = CCCCCCCCCCCCCCCC(=O)*

T1: human glucose-dependent insulinotropic peptide (gastric inhibitory polypeptide) receptor (human) (UniProt P48546)
T1 sequence (looked up): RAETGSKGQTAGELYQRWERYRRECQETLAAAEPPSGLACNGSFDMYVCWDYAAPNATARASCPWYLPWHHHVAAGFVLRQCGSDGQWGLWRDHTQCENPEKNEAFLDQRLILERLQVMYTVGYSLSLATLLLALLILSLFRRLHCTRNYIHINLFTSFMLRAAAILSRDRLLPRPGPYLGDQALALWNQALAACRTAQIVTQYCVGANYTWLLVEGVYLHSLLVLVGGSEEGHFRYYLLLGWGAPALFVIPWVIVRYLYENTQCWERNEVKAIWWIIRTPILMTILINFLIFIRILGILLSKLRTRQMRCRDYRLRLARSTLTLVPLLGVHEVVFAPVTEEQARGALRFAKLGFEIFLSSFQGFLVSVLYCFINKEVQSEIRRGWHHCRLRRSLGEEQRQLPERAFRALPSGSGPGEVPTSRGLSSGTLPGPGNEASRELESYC

B1: g836 (peptide)
peptide: HSQGTFTSDYSKYK([γGlu-Palmitoyl])DSERARDFVEWLEAGG-NH2
modifications: N-terminus assumed
SMILES: CCCCCCCCCCCCCCCC(=O)N[C@@H](CCC(=O)NCCCC[C@H](NC(=O)[C@H](Cc1ccc(O)cc1)NC(=O)[C@H](CCCCN)NC(=O)[C@H](CO)NC(=O)[C@H](Cc1ccc(O)cc1)NC(=O)[C@H](CC(=O)O)NC(=O)[C@H](CO)NC(=O)[C@@H](NC(=O)[C@H](Cc1ccccc1)NC(=O)[C@@H](NC(=O)CNC(=O)[C@H](CCC(N)=O)NC(=O)[C@H](CO)NC(=O)[C@@H](N)Cc1c[nH]cn1)[C@@H](C)O)[C@@H](C)O)C(=O)N[C@@H](CC(=O)O)C(=O)N[C@@H](CO)C(=O)N[C@@H](CCC(=O)O)C(=O)N[C@@H](CCCNC(=N)N)C(=O)N[C@@H](C)C(=O)N[C@@H](CCCNC(=N)N)C(=O)N[C@@H](CC(=O)O)C(=O)N[C@@H](Cc1ccccc1)C(=O)N[C@H](C(=O)N[C@@H](CCC(=O)O)C(=O)N[C@@H](Cc1c[nH]c2ccccc12)C(=O)N[C@@H](CC(C)C)C(=O)N[C@@H](CCC(=O)O)C(=O)N[C@@H](C)C(=O)NCC(=O)NCC(N)=O)C(C)C)C(=O)O
B2: g781 (peptide)
peptide: HSQGTFTSDYSKYLDK([γGlu-Palmitoyl])RRARDFVAWLEAGG-NH2
modifications: N-terminus assumed
SMILES: CCCCCCCCCCCCCCCC(=O)N[C@@H](CCC(=O)NCCCC[C@H](NC(=O)[C@H](CC(=O)O)NC(=O)[C@H](CC(C)C)NC(=O)[C@H](Cc1ccc(O)cc1)NC(=O)[C@H](CCCCN)NC(=O)[C@H](CO)NC(=O)[C@H](Cc1ccc(O)cc1)NC(=O)[C@H](CC(=O)O)NC(=O)[C@H](CO)NC(=O)[C@@H](NC(=O)[C@H](Cc1ccccc1)NC(=O)[C@@H](NC(=O)CNC(=O)[C@H](CCC(N)=O)NC(=O)[C@H](CO)NC(=O)[C@@H](N)Cc1c[nH]cn1)[C@@H](C)O)[C@@H](C)O)C(=O)N[C@@H](CCCNC(=N)N)C(=O)N[C@@H](CCCNC(=N)N)C(=O)N[C@@H](C)C(=O)N[C@@H](CCCNC(=N)N)C(=O)N[C@@H](CC(=O)O)C(=O)N[C@@H](Cc1ccccc1)C(=O)N[C@H](C(=O)N[C@@H](C)C(=O)N[C@@H](Cc1c[nH]c2ccccc12)C(=O)N[C@@H](CC(C)C)C(=O)N[C@@H](CCC(=O)O)C(=O)N[C@@H](C)C(=O)NCC(=O)NCC(N)=O)C(C)C)C(=O)O
B3: g817 (peptide)
peptide: HSQGTFTSDYSKYK([γGlu-Palmitoyl])DSRAAQDFVQWLEAGG-NH2
modifications: N-terminus assumed
SMILES: CCCCCCCCCCCCCCCC(=O)N[C@@H](CCC(=O)NCCCC[C@H](NC(=O)[C@H](Cc1ccc(O)cc1)NC(=O)[C@H](CCCCN)NC(=O)[C@H](CO)NC(=O)[C@H](Cc1ccc(O)cc1)NC(=O)[C@H](CC(=O)O)NC(=O)[C@H](CO)NC(=O)[C@@H](NC(=O)[C@H](Cc1ccccc1)NC(=O)[C@@H](NC(=O)CNC(=O)[C@H](CCC(N)=O)NC(=O)[C@H](CO)NC(=O)[C@@H](N)Cc1c[nH]cn1)[C@@H](C)O)[C@@H](C)O)C(=O)N[C@@H](CC(=O)O)C(=O)N[C@@H](CO)C(=O)N[C@@H](CCCNC(=N)N)C(=O)N[C@@H](C)C(=O)N[C@@H](C)C(=O)N[C@@H](CCC(N)=O)C(=O)N[C@@H](CC(=O)O)C(=O)N[C@@H](Cc1ccccc1)C(=O)N[C@H](C(=O)N[C@@H](CCC(N)=O)C(=O)N[C@@H](Cc1c[nH]c2ccccc12)C(=O)N[C@@H](CC(C)C)C(=O)N[C@@H](CCC(=O)O)C(=O)N[C@@H](C)C(=O)NCC(=O)NCC(N)=O)C(C)C)C(=O)O
B4: g876 (peptide)
peptide: HSQGTFTSDYSEYK([γGlu-Palmitoyl])DSRRARDFVEWLEAGG-NH2
modifications: N-terminus assumed
SMILES: CCCCCCCCCCCCCCCC(=O)N[C@@H](CCC(=O)NCCCC[C@H](NC(=O)[C@H](Cc1ccc(O)cc1)NC(=O)[C@H](CCC(=O)O)NC(=O)[C@H](CO)NC(=O)[C@H](Cc1ccc(O)cc1)NC(=O)[C@H](CC(=O)O)NC(=O)[C@H](CO)NC(=O)[C@@H](NC(=O)[C@H](Cc1ccccc1)NC(=O)[C@@H](NC(=O)CNC(=O)[C@H](CCC(N)=O)NC(=O)[C@H](CO)NC(=O)[C@@H](N)Cc1c[nH]cn1)[C@@H](C)O)[C@@H](C)O)C(=O)N[C@@H](CC(=O)O)C(=O)N[C@@H](CO)C(=O)N[C@@H](CCCNC(=N)N)C(=O)N[C@@H](CCCNC(=N)N)C(=O)N[C@@H](C)C(=O)N[C@@H](CCCNC(=N)N)C(=O)N[C@@H](CC(=O)O)C(=O)N[C@@H](Cc1ccccc1)C(=O)N[C@H](C(=O)N[C@@H](CCC(=O)O)C(=O)N[C@@H](Cc1c[nH]c2ccccc12)C(=O)N[C@@H](CC(C)C)C(=O)N[C@@H](CCC(=O)O)C(=O)N[C@@H](C)C(=O)NCC(=O)NCC(N)=O)C(C)C)C(=O)O
B5: g805 (peptide)
peptide: HSQGTFTSDYSKYK([γGlu-Palmitoyl])DSRRARDFVEWLEAGG-NH2
modifications: N-terminus assumed
SMILES: CCCCCCCCCCCCCCCC(=O)N[C@@H](CCC(=O)NCCCC[C@H](NC(=O)[C@H](Cc1ccc(O)cc1)NC(=O)[C@H](CCCCN)NC(=O)[C@H](CO)NC(=O)[C@H](Cc1ccc(O)cc1)NC(=O)[C@H](CC(=O)O)NC(=O)[C@H](CO)NC(=O)[C@@H](NC(=O)[C@H](Cc1ccccc1)NC(=O)[C@@H](NC(=O)CNC(=O)[C@H](CCC(N)=O)NC(=O)[C@H](CO)NC(=O)[C@@H](N)Cc1c[nH]cn1)[C@@H](C)O)[C@@H](C)O)C(=O)N[C@@H](CC(=O)O)C(=O)N[C@@H](CO)C(=O)N[C@@H](CCCNC(=N)N)C(=O)N[C@@H](CCCNC(=N)N)C(=O)N[C@@H](C)C(=O)N[C@@H](CCCNC(=N)N)C(=O)N[C@@H](CC(=O)O)C(=O)N[C@@H](Cc1ccccc1)C(=O)N[C@H](C(=O)N[C@@H](CCC(=O)O)C(=O)N[C@@H](Cc1c[nH]c2ccccc12)C(=O)N[C@@H](CC(C)C)C(=O)N[C@@H](CCC(=O)O)C(=O)N[C@@H](C)C(=O)NCC(=O)NCC(N)=O)C(C)C)C(=O)O
B6: g850 (peptide)
peptide: HSQGTFTSDYSRYK([γGlu-Palmitoyl])DSRSARDFVAWLEA-NH2
modifications: N-terminus assumed
SMILES: CCCCCCCCCCCCCCCC(=O)N[C@@H](CCC(=O)NCCCC[C@H](NC(=O)[C@H](Cc1ccc(O)cc1)NC(=O)[C@H](CCCNC(=N)N)NC(=O)[C@H](CO)NC(=O)[C@H](Cc1ccc(O)cc1)NC(=O)[C@H](CC(=O)O)NC(=O)[C@H](CO)NC(=O)[C@@H](NC(=O)[C@H](Cc1ccccc1)NC(=O)[C@@H](NC(=O)CNC(=O)[C@H](CCC(N)=O)NC(=O)[C@H](CO)NC(=O)[C@@H](N)Cc1c[nH]cn1)[C@@H](C)O)[C@@H](C)O)C(=O)N[C@@H](CC(=O)O)C(=O)N[C@@H](CO)C(=O)N[C@@H](CCCNC(=N)N)C(=O)N[C@@H](CO)C(=O)N[C@@H](C)C(=O)N[C@@H](CCCNC(=N)N)C(=O)N[C@@H](CC(=O)O)C(=O)N[C@@H](Cc1ccccc1)C(=O)N[C@H](C(=O)N[C@@H](C)C(=O)N[C@@H](Cc1c[nH]c2ccccc12)C(=O)N[C@@H](CC(C)C)C(=O)N[C@@H](CCC(=O)O)C(=O)N[C@@H](C)C(N)=O)C(C)C)C(=O)O
B7: g804 (peptide)
peptide: HSQGTFTSDYSKYK([γGlu-Palmitoyl])DSRRARDFVAWLEA-NH2
modifications: N-terminus assumed
SMILES: CCCCCCCCCCCCCCCC(=O)N[C@@H](CCC(=O)NCCCC[C@H](NC(=O)[C@H](Cc1ccc(O)cc1)NC(=O)[C@H](CCCCN)NC(=O)[C@H](CO)NC(=O)[C@H](Cc1ccc(O)cc1)NC(=O)[C@H](CC(=O)O)NC(=O)[C@H](CO)NC(=O)[C@@H](NC(=O)[C@H](Cc1ccccc1)NC(=O)[C@@H](NC(=O)CNC(=O)[C@H](CCC(N)=O)NC(=O)[C@H](CO)NC(=O)[C@@H](N)Cc1c[nH]cn1)[C@@H](C)O)[C@@H](C)O)C(=O)N[C@@H](CC(=O)O)C(=O)N[C@@H](CO)C(=O)N[C@@H](CCCNC(=N)N)C(=O)N[C@@H](CCCNC(=N)N)C(=O)N[C@@H](C)C(=O)N[C@@H](CCCNC(=N)N)C(=O)N[C@@H](CC(=O)O)C(=O)N[C@@H](Cc1ccccc1)C(=O)N[C@H](C(=O)N[C@@H](C)C(=O)N[C@@H](Cc1c[nH]c2ccccc12)C(=O)N[C@@H](CC(C)C)C(=O)N[C@@H](CCC(=O)O)C(=O)N[C@@H](C)C(N)=O)C(C)C)C(=O)O

human GLP-1 receptor, sequence (P43220 24-463): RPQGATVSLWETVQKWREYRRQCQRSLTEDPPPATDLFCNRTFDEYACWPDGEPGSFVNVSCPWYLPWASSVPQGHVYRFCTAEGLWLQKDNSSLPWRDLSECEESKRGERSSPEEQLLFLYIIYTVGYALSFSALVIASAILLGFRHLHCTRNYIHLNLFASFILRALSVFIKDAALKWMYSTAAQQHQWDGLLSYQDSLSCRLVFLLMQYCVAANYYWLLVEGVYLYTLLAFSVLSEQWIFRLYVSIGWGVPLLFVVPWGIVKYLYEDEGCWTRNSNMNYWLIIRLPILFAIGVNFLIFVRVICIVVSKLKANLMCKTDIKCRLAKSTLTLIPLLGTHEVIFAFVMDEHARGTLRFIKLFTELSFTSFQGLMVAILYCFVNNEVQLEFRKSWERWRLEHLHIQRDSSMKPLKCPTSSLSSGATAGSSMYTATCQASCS

For one assay, the target named is human glucagon receptor (human, UniProt P47871 26-477). Briefly: cell-based or functional assay.
human glucagon receptor, sequence (P47871 26-477): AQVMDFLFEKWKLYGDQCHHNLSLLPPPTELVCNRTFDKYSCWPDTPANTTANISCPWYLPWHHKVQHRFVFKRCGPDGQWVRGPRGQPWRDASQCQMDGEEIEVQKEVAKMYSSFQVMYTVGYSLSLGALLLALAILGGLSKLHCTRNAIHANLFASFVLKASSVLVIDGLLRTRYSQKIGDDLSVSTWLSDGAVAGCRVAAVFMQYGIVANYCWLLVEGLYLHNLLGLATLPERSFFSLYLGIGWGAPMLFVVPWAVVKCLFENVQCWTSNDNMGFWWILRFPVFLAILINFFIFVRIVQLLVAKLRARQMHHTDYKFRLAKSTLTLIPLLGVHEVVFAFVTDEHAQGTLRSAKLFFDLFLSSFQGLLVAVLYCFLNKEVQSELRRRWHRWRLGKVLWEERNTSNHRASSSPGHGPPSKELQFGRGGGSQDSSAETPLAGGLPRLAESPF
As to B1, the cAMP EC50 (assay 1) turned out to be 0.0155 nM.
Same read-out and setting: the result for B2 reads 0.00286 nM.
Same read-out and setting: the value for B3 was 0.00168 nM; that for B4 was 0.0104 nM.
Still for that read-out and setting: the result for B5 reads 0.00144 nM; that for B6, 0.00219 nM.
For B7, the cAMP EC50 (assay 1) was 0.00195 nM.

The next assay addresses human GLP-1 receptor (human, UniProt P43220 24-463). Put plainly: cell-based or functional assay.
Take B1: the cAMP EC50 (assay 1) is 0.124 nM.
Consider B2, for which the cAMP EC50 (assay 1) came out at 0.104 nM.
Same read-out and setting: the value for B3 was 0.0251 nM; that for B4 was 0.0863 nM.
In turn, B5 displayed a cAMP EC50 (assay 1) of 0.0228 nM.
The same measure, in the same setting: the value for B6 was 0.0212 nM; that for B7 was 0.0715 nM.

The target of another assay is T1, human glucose-dependent insulinotropic peptide (gastric inhibitory polypeptide) receptor (human). Briefly: cell-based or functional assay.
As for B1, the cAMP EC50 (assay 1) was 100 nM.
On the same count and under the same terms, the result for B2 reads 402 nM; that for B3, 15.2 nM.
On the same count and under the same terms, the result for B4 reads 79 nM; that for B5, 99.7 nM.
Turning to B6, the cAMP EC50 (assay 1) worked out at 89.6 nM.
Still for that read-out and setting: the value for B7 was 99.7 nM.
